{"source": "paper PMC9410543", "parents": {"B1": {"name": "unnamed (parent)", "chain 1": "VGDDSGGFSTTVSTEQNVPDPQVGITTMKDLKGKANRGKMDVSGVQAPVGAITTIEDPVLAKKVPETFPELKPGESRHTSDHMSIYKFMGRSHFLCTFTFNSNNKEYTFPITLSSTSNPPHGLPSTLRWFFNLFQLYRGPLDLTIIITGATDVDGMAWFTPVGLAVDTPWVEKESALSIDYKTALGAVRFNTRRTGNIQIRLPWYSYLYAVSGALDGLGDKTDSTFGLVSIQIANYNHSDEYLSFSCYLSVTEQSEFYFPRAPLNSNAMLSTESMMSRIAAGDLESSVDDPRSEEDKRFESHIECRKPYKELRLEVGKQRLKYAQEELSNEVLPPPRKMKGLFSQ", "chain 2": "MAVSESQLKKMVSKYKYRDLTVRETVNVITLYKDLKPVLDSYVFNDGSSRELMNLTGTIPVPYRGNTYNIPICLWLLDTYPYNPPICFVKPTSSMTIKTGKHVDANGKIYLPYLHEWKHPQSDLLGLIQVMIVVFGDEPPVFSRPISASYPPYQATGPPNTSYMPGMPGGISPYPSGYPPNPSGYPGCPYPPGGPYPATTSSQYPSQPPVTTVGPSRDGTISEDTIRASLISAVSDKLRWRMKEEMDRAQAELNALKRTEEDLKKGHQKLEEMVTRLDQEVAEVDKNIELLKKKDEELSSALEKMENQSENNDIDEVIIPTAPLYKQILNLYAEENAIEDTIFYLGEALRRGVIDLDVFLKHVRLLSRKQFQLRALMQKARKTAGLSDLY"}, "B2": {"name": "unnamed (parent)", "chain 1": "B1 chain 1", "chain 2": "MATFISVQLKKTSEVDLAKPLVKFIQQTYPSGGEEQAQYCRAAEELSKLRRAAVGRPLDKHEGALETLLRYYDQICSIEPKFPFSENQICLTFTWKDAFDKGSLFGGSVKLALASLGYEKSCVLFNCAALASQIAAEQNLDNDEGLKIAAKHYQFASGAFLHIKETVLSALSREPTVDISPDTVGTLSLIMLAQAQEVFFLKATRDKMKDAIIAKLANQAADYFGDAFKQCQYKDTLPKEVFPVLAAKHCIMQANAEYHQSILAKQQKKFGEEIARLQHAAELIKTVASRYDEYVNVKDFSDKINRALAAAKKDNDFIYHDRVPDLKDLDPIGKATLVKSTPVNVPISQKFTDLFEKMVPVSVQQSLAAYNQRKADLVNRSIAQMREATTLANGVLASLNLPAAIEDVSGDTVPQSILTKSRSVIEQGGIQTVDQLIKELPELLQRNREILDESLRLLDEEEATDNDLRAKFKERWQRTPSNELYKPLRAEGTNFRTVLDKAVQADGQVKECYQSHRDTIVLLCKPEPELNAAIPSANPAKTMQGSEVVNVLKSLLSNLDEVKKEREGLENDLKSVNFDMTSKFLTALAQDGVINEEALSVTELDRVYGGLTTKVQESLKKQEGLLKNIQVSHQEFSKMKQSNNEANLREEVLKNLATAYDNFVELVANLKEGTKFYNELTEILVRFQNKCSDIVFARKTERDELLKDLQQSIAREPSAPSIPTPAYQSSPAGGHAPTPPTPAPRTMPPTKPQPPARPPPPVLPANRAPSATAPSPVGAGTAAPAPSQTPGSAPPPQAQGPPYPTYPGYPGYCQMPMPMGYNPYAYGQYNMPYPPVYHQSPGQAPYPGPQQPSYPFPQPPQQSYYPQQ"}, "B3": {"name": "unnamed (parent)", "chain 1": "B1 chain 1", "chain 2": "not shown"}}, "data": [{"variants_of": "B1", "experiment": "protein-fragment complementation assay (split Gaussia luciferase, GLuc2 bait / GLuc1 prey)", "conditions": "with partner chain of the complex shown;; read off a plot", "values": [{"variant": "chain 1 Y309A K310A E311A L312A", "response (Log2 normalized LU)": 4.4}]}, {"variants_of": "B2", "experiment": "protein-fragment complementation assay (split Gaussia luciferase, GLuc2 bait / GLuc1 prey)", "conditions": "with partner chain of the complex shown;; read off a plot", "values": [{"variant": "chain 1 Y309A K310A E311A L312A", "response (Log2 normalized LU)": 4.7}]}, {"variants_of": "B3", "experiment": "protein-fragment complementation assay (split Gaussia luciferase, GLuc2 bait / GLuc1 prey)", "conditions": "with partner chain of the complex shown;; read off a plot", "values": [{"variant": "chain 1 Y309A K310A E311A L312A", "response (Log2 normalized LU)": 3}]}]}
